In article PMC10473755:

Biological target: prion-like C-terminal domain of TDP-43 (TDP-43PrLD), in droplets with poly-A RNA (UniProt Q13148)
Assay: co-sedimentation

prion-like C-terminal domain of TDP-43 (TDP-43PrLD), in droplets with poly-A RNA, sequence (Q13148 267-414): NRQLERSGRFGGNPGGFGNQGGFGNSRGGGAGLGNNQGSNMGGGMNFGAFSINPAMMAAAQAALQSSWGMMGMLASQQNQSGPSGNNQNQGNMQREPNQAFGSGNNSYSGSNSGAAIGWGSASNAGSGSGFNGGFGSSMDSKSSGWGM

α-synuclein, wild-type monomers (from UniProt P37840 1-140) (natural protein)
percent of total αS partitioned into the droplets: 8%
